The results in this text go back to patent publication US20170022287A1 (Chugai, published 2017).

For experiment [1], the target named is T1, CRD1.
T1 construct: also called fragmented human CD137-Fc fusion protein CRD1
Put plainly: ELISA, coated CD137-Fc protein 2 µg/mL, antibody 10 or 5 µg/mL; absorbance 620 nm divided by that of the uncoated well. The procedure:
(§1) Fragmented human CD137-Fc fusion proteins were diluted to 2 μg/mL in an aqueous sodium carbonate solution adjusted to pH9.6. Fifty μL of a diluted fragmented human CD137-Fc fusion protein was added individually to each well of a Nunc MaxiSorp flat-bottom 96 well plate (Nunc). This was allowed to stand at 4° C. overnight or longer, and then the plate was allowed to stand at room temperature for one hour so that the plate has the same temperature as the room temperature. The solution containing the fragmented human CD137-Fc fusion protein was removed by tilting, and each well was washed three times with 300 μL of Wash buffer (TBS containing 0.1% Tween20, TaKaRa). Next, 150 μL of blocking buffer (TBS containing 2% BSA) was added to each well, and this was allowed to stand for one hour or more. The blocking buffer was removed by tilting, and each well was washed three times with Wash Buffer in a similar manner to an earlier step. Then, 50 μL of an antibody solution prepared in advance by dilution with TBS to 10 μg/mL or 5 μg/mL was added to each well. This was subjected to a speed of 600 rpm or so for one hour at room temperature to bind the antibody to the immobilized antigen. […] 100 μL of a secondary antibody solution produced by 1000-fold dilution with TBS containing 0.1% Tween20 was added to each well. For the secondary antibody, ANTIBODY ALKALINE PHOSPHATASE CONJUGATE HUMAN IMMUNOGLOBULIN ABSORBED Goat Anti-Human Kappa Alkaline Phosphate from BIOSOURCE was used in the case of antibodies carrying a Kappa chain, and Human Lambda Light Chain Antibody; Goat anti-Human Lambda Light Chain Antibody Alkaline Phosphatase Conjugated from BETHYL LABORATORIES INC. was used in the case of antibodies carrying a Lambda chain. […] Color development was performed using the BluePhos Microwell kit from KPL. After the chromogenic reaction was stopped using the AP stop solution from KPL, the absorbance was measured at 620 nm on an absorptiometer.

The target of experiment [2] is T2, CRD2-4.
T2 construct: also called fragmented human CD137-Fc fusion protein CRD2-4
T2 sequence (chain, as listed by the source limits assumed): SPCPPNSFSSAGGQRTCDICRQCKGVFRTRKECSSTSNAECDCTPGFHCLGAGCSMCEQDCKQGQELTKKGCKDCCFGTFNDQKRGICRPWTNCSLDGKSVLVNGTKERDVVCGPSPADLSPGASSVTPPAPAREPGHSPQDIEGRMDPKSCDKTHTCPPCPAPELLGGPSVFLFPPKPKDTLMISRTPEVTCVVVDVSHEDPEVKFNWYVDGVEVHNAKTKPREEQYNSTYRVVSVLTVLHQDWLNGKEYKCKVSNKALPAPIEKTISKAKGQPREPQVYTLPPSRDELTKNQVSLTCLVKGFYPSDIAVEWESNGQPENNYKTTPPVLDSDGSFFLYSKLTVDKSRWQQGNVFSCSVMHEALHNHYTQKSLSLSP
The description is as above. The procedure:
as §1

The target in experiment [3] is T3, CRD1-2.
T3 construct: also called fragmented human CD137-Fc fusion protein CRD1-2
T3 sequence (chain, as listed by the source limits assumed): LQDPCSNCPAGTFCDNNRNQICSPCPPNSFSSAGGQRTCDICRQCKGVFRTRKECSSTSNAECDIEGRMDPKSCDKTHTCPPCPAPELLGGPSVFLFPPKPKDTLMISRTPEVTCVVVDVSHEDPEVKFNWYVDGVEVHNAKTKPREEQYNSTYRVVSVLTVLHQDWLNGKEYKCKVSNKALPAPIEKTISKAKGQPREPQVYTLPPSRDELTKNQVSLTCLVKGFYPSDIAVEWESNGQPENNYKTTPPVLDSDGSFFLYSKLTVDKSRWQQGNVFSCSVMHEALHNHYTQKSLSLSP
The experiment is described as above. The procedure:
as §1

The target in experiment [4] is T4, CRD1-3.
T4 construct: also called fragmented human CD137-Fc fusion protein CRD1-3
T4 sequence (chain, as listed by the source limits assumed): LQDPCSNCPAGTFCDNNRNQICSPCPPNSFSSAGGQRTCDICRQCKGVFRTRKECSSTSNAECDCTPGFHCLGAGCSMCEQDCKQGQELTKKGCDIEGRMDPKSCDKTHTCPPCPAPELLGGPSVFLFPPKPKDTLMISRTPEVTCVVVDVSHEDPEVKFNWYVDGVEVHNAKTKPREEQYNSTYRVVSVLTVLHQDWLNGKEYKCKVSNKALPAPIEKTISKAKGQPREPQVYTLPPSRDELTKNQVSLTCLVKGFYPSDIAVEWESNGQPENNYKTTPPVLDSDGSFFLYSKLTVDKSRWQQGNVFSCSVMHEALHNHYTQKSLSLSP
The experiment is described as above. The procedure:
as §1

In experiment [5] the target is T5, CRD3-4.
T5 construct: also called fragmented human CD137-Fc fusion protein CRD3-4
T5 sequence (chain, as listed by the source limits assumed): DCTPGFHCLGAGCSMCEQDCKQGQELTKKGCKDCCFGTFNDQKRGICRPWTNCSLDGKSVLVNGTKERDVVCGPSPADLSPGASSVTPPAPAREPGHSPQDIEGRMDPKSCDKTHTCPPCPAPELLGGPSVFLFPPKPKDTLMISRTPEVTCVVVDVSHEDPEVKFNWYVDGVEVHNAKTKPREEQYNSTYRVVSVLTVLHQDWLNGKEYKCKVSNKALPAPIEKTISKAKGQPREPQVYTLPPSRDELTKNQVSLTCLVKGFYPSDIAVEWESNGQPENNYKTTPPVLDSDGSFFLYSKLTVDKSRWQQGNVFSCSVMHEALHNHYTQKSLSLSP
The experiment is described as above. The procedure:
as §1

Experiment [6] concerns the target T6, CRD2-3.
T6 construct: also called fragmented human CD137-Fc fusion protein CRD2-3
Described as above. The procedure:
as §1

For experiment [7], the target named is T1, CRD1. Nature of the experiment: ELISA, coated CD137-Fc protein 2 µg/mL, antibody 10 or 5 µg/mL, absorbance 620 nm; Non (uncoated well) 0.202. The procedure:
as §1
On the technique in general: In an ELISA, binding on a coated surface is turned into a signal by an enzyme label.

The target in experiment [8] is T2, CRD2-4. The description is as above. The procedure: as §1
Experiment [9] addresses T3, CRD1-2. The experiment is described as above. The procedure: as §1
Experiment [10] deals with T4, CRD1-3. The experiment is described as above. The procedure: as §1
In experiment [11] the target is T5, CRD3-4. The description is as above. The procedure:
as §1

For experiment [12], the target named is T6, CRD2-3. The experiment is described as above. The procedure: as §1
T6 sequence (chain, as listed by the source limits assumed): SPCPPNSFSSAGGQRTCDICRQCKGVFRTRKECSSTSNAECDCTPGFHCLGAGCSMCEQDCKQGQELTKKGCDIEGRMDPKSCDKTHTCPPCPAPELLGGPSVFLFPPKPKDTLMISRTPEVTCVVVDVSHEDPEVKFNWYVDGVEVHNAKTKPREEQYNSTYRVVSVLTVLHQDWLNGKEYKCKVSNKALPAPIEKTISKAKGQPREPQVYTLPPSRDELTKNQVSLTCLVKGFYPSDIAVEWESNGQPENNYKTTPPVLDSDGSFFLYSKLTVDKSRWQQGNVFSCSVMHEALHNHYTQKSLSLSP
Experiment [13] addresses full-length human CD137-Fc fusion protein (human). Put plainly: ELISA, coated CD137-Fc protein 2 µg/mL, antibody 10 or 5 µg/mL; absorbance 620 nm divided by that of the uncoated well. The procedure:
as §1

Experiment [14] concerns the target T1, CRD1. Nature of the experiment: ELISA, coated CD137-Fc protein 2 µg/mL, antibody 10 or 5 µg/mL, absorbance 620 nm; Non (uncoated well) 0.061. The procedure: as §1
Experiment [15] deals with T2, CRD2-4. The description is as above. The procedure: as §1
Experiment [16] has as its target T3, CRD1-2. Described as above. The procedure: as §1
Experiment [17] has as its target T4, CRD1-3. The description is as above. The procedure: as §1
Experiment [18] addresses T5, CRD3-4. The description is as above. The procedure:
as §1

For experiment [19], the target named is full-length human CD137-Fc fusion protein (human). Described as above. The procedure: as §1
Chain of full-length human CD137-Fc fusion protein (human) (chain, as listed by the source limits assumed): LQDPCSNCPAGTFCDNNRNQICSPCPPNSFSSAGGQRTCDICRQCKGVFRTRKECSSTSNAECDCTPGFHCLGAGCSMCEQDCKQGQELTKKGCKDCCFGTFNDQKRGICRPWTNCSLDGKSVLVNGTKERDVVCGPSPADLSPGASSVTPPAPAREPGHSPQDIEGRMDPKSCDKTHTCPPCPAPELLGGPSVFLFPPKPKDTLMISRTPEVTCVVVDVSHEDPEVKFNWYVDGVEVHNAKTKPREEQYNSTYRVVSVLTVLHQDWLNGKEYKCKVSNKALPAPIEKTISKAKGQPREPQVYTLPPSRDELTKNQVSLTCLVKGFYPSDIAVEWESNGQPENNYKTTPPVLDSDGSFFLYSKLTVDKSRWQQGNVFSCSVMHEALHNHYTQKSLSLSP
Experiment [20] has as its target T6, CRD2-3. The description is as above. The procedure: as §1
Experiment [21] concerns the target T1, CRD1. Nature of the experiment: ELISA, coated CD137-Fc protein 2 µg/mL, antibody 10 or 5 µg/mL, absorbance 620 nm; Non (uncoated well) 0.051. The procedure:
as §1

For experiment [22], the target named is T2, CRD2-4. The experiment is described as above. The procedure:
as §1

For experiment [23], the target named is T3, CRD1-2. Described as above. The procedure: as §1
Experiment [24] concerns the target T4, CRD1-3. The description is as above. The procedure:
as §1

Experiment [25] has as its target T5, CRD3-4. The experiment is described as above. The procedure:
as §1

Experiment [26] has as its target full-length human CD137-Fc fusion protein (human). The description is as above. The procedure:
as §1

Experiment [27] deals with T6, CRD2-3. Described as above. The procedure: as §1

T1 sequence (chain, as listed by the source limits assumed): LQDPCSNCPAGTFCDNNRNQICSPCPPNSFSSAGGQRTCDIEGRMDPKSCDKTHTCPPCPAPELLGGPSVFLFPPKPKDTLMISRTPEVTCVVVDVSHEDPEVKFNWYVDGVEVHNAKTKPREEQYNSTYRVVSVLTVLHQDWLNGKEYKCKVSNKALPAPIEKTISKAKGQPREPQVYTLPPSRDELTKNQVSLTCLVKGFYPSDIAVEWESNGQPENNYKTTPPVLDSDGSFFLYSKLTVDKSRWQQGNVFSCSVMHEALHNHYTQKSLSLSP

B1: R2 (antibody, V domains shown)
VH: EVQLQESGPGLVKPSETLSLTCTVSGGSISSSSYYWGWIRQPPGKGLEWIGSIHYTGSTYYNPSLKSRVTISVDTSKNQFSLKLSSVTAADTAVYYCARLNPSIAARPGAFDIWGQGTMVTVSS
VL: QSVLTQPPSVSAAPGQKVTISCSGSSSNIANNFVSWFQQLPGTAPKLLIYDNNKRPSGIPDRFSGSKSGTSATLGITGLQTGDEADYYCGTWDRSLSAGVFGGGTKVTVL
notes: Naive library clone; Fab on phage in the phage ELISA
Take B1: the “Ratio with respect to Non-Coating” value with CRD1 [1] is 1.1; with CRD2-4 [2], 0.7; in the experiment with CRD1-2 [3], 1; with CRD1-3 [4], 1.1; in the experiment with CRD3-4 [5], 0.5; with CRD2-3 [6], 0.9. The “ELISA color development level” value with CRD1 [7] is 0.226; with CRD2-4 [8], 0.15; with CRD1-2 [9], 0.202; with CRD1-3 [10], 0.226; in the experiment with CRD3-4 [11], 0.11; with CRD2-3 [12] it was 0.19.

B2: R3 (antibody, V domains shown)
VH: EVQLVQSGAEVKKPGASVKVSCKASGYTFTSYYTHWVRQAPGQGLEWMGIINPSGGSTSYAQKFQGRVTMTRDTSTSTVYMELSSLRSEDTAVYYCARGAPEYSSSSDYWGQGTMVTVSS
VL: QSALTQPASVSGSPGQSITISCTGTSSDVGGYNFVSWYQQHPGKAPKLMIYDVSKRPSGVSTRFSGSKSGNTASLTISGLQAEDEADYYCNSYTTSSTRWMFGGGTKVTVL
notes: as for B1
In the case of B2, the “Ratio with respect to Non-Coating” value with CRD1 [1] came out at 1.7; with CRD2-4 [2], 1.4; with CRD1-2 [3], 28.5; with CRD1-3 [4], 18.4; with CRD3-4 [5], 1.3; in [13], 33.7. The “Ratio with respect to Non-Coating” value with CRD2-3 [6] came to 1.6. The “ELISA color development level” value with CRD1 [14] came out at 0.103; in the experiment with CRD2-4 [15] it was 0.0875; with CRD1-2 [16] it was 1.74; with CRD1-3 [17], 1.12; with CRD3-4 [18] it was 0.077; in [19] it was 2.06. In addition, the “ELISA color development level” value with CRD2-3 [20] was 0.0995.

B3: R4 (antibody, V domains shown)
VH: EVQLVQSGAEVKKPGASVKVSCKASGYTFSGYYMHWVRQAPGQGLEWMGWINPNSGDTNYAQNFQGRVTMTRDTSISTAYMELSRLRSDDTAVYYCARDGTGYSSSPDYWGQGTPVTVSS
VL: QSALTQPASVSGSPGQSITISCTGTSSDVGGYNYVSWYQQHPGKAPKLMIYDVSNRPSGVSNRFSGSKSGNTASLTISGLQAEDEADYYCSSYTSSSTRWVFGGGTKLTVL
notes: as for B1
Consider B3, for which the “Ratio with respect to Non-Coating” value with CRD1 [1] was found to be 1.2; in the experiment with CRD2-4 [2], 1.3; with CRD1-2 [3] it was 29.3; with CRD1-3 [4], 15.3; in the experiment with CRD3-4 [5], 1.1; in [13], 37.1. Also, the “Ratio with respect to Non-Coating” value in the experiment with CRD2-3 [6] turned out to be 1.1. In addition, the “ELISA color development level” value in the experiment with CRD1 [21] was 0.0635; with CRD2-4 [22], 0.065; in the experiment with CRD1-2 [23], 1.49; with CRD1-3 [24], 0.779; with CRD3-4 [25], 0.056; in experiment [26], 1.89. For the same molecule, the “ELISA color development level” value in the experiment with CRD2-3 [27] came to 0.0585.
